Article PMC8083607 (2021)

B1: FC118 (antibody, V domains shown)
VH: EVQLLESGGGVVQPGRSLRLSCAASGFTFSSYAMHWVRQAPGKGLEWVAVISYDGSNKYYADSVKGRFTISRDNSKNTLYLQMNSLRAEDTAVYYCARARGGSYLYGMDVWGQGAMVTVSS
VL: DIELTQSPSSLAASVGDTVTITCRASQTIGKYLTWYQKKPGRAPDLLIYAASRLQSGVPSRFSGRASGTEFTLTISSLQPEDFATYFCQHTYRTLSFGPGTKVDLK
B2: FC122 (antibody, V domains shown)
VH: EVQLLESGGGVVQPGRSLRLSCAASGFTFSSYAMHWVRQAPGKGLEWVALISYDGINKYYADSVNGRFTISRDNSKYTLYLQMNSLRAEDTAVYYCARAHRGSYYYGMDVWGQGTMVTVSS
VL: DIELTQSPSSLSASVGDSVTITCRGSQIISRYLNWYQQKPGKAPKLLIYAASTLQSGVPSRFSGSGSGTEFTLSISSLEPEDFATYYCQQSYAIPYTFGQGTRLEI
B3: FC124 (antibody, V domains shown)
VH: EVQLLESGGGVVQPGRSLRLSCAASGFTFSSYAMHWVRQAPGKGLEWVALISYDGINKYYADSVNGRFTISRDNSKYTLYLQMNSLRAEDTAVYYCARAHRGSYYYGMDVWGQGTMVTVSS
VL: DIELTQSPGTLSLSPGERATLYCRASQSVSSSYLAWYQQKPGQAPRLLIYGAFGRAAGIPDRFRGSGSGTQFTLTISRLEPEDSAVYFCQQYGQSPLYSFGQGTKLEIK
B4: FC120 (antibody, V domains shown)
VH: EVQLLESGAEVKKPGASVKVSCKASGYTFTSYYMHWVRQAPGQGLEWMGIINPSGGSTSYAQKFQGRVTMTRDTSTSTVYMELSSLRSEDTAVYYCARGGGHALDIWGQGTMVTVSS
VL: QSVLTQPPSVSGAPGQKVTISCSGSSSNIGNNYVSWYQQLPGTAPKLLIYDNNKRPSGIPDRFSGSKSGTSATLGITGLQTGDEADYYCGTWDSSLSAWVFGGGTKLTVL
B5: FC06 (antibody, V domains shown)
VH: EVQLLESGGGVVQPGRSLRLSCAASGFTFSSYAMHWVRQAPGEGLEWVAVISYDGSNKYYADSVKGRFTISRDNSKNTLYLQMNSLRAGDTAVYYCARLNYYGSGFYYRLGDDYWGQGTLVTVSS
VL: DIELTQSPSSLSASEGDRVTITCRASQGIRNDLGWYQQKPGKAPKRLIYGAPSLQSGVPSRFSGSGSGTEFTLTISTLQPEDSATYYCLQHNKYPWTFGQGTKVEIK
B6: FC07 (antibody, V domains shown)
VH: EVQLLESGGGLVQPGGSLRLSCAASGFTFGSYAMSWVRQAPGKGLEWVSSISGSGGSTYYADSAKGRFTISRDNSKNTLYLQMNSLRAEDTAVYYCAKSPNYDILTGYYNWAGYYFDYWGQGTLVTVSS
VL: DIELTQSPGTLSLSPGDRATLSCRASRGVSSNSLAWYRQRPGESPRLVISGASTRATGIPERFSGSGSGTDFSLSISRLQPEDFAVYYCQQYGSFPFTFGPGTTVDV
B7: FC05 (antibody, V domains shown)
VH: VQLLEQSGAEVKKPGASVRVSCKVSGYTLPEVAMHWVRQAPGKGLEWMGGFDPEDGETMYAQKFQGRVTMTEDTSTDTAYMELSSLRSEDTAVYYCATTTPFSSSYWFDPWGQGTLVTVSS
VL: QSVLTQAPSVSGAPGQKVTISCSGSSSNIGNNYVSWYQQLPGTAPKLLIYDNNKRPSGIPDRFSGSKSGTSATLGITGLQTGDEADYYCGTWDSSLSAVVFGGGTKLTVL
B8: FC01 (antibody, V domains shown)
VH: EVQLLESGTEVKKPGSSVKVSCKASGGTFSSYAISWVRQAPGQGLEWMGGIIPILGIANYAQKFQGRVTITADKSTSTAYMELSSLRSEDTAVYYCARERGYSGYGAAYYFDYWGQGTLVTVSS
VL: QSVLTQAPSVSGAPGQSVTISCTGSSSNIGAGYDVHWYQQLPGTAPKLLIYGNNNRPSGVPDRFSGSKSGTSASLAITGLQAEDEADYYCQSYDSSLSKGVFGGGTKLTVL
B9: FC11 (antibody, V domains shown)
VH: EVQLLESGGGVVQPGRSLRLSCAASGFTFSYYGMHWVRQAPGTGLEWVAVISYDGSNEYYADSVKGRFTISRDNSKNTLYLQMNSLRAEDTAVYYCAKAMFLGDSSGLTGLDMDVWGQGTTVTVSS
VL: DIELTQSPGTLSLSPGERATLSCRASQSVSSYLAWYQQKPGQAPRLLIYDASNRATGIPARFSGSGSGTDFTLTISSLEPEDFALYYCQQRGNWPPTFGGGTKLEIK
B10: FC08 (antibody, V domains shown)
VH: QLLQQSGAEVKKPGSSVKVSCKASGGTFSSYAISWVRQAPGQGLEWMGGIIPIIGIANYAQKFQGRVTITADKSTSTAYMELSSLRSEDTAVYYCARERGYSGYGAAYYFDYWGQGTLVTVSS
VL: SVLTQPPSVSGAPGQRVTISCTGSSSNIGAGYDVHWYQQLPGTAPKLLIYGNSNRPSGVPDRFSGSKSGTSASLAITGLQAEDEADYYCQSYDSSLSGSVFGGGTKLTVL

Molecular target: SARS-CoV-2 S2 (recombinant) (SARS-CoV-2)
Assay: SPR

Point of comparison: B1, Kd 41.1 nM. Against it:
- B2 — 4.4-fold lower, 9.44 nM
- B3 — within 1.5-fold, 38.6 nM
- B4 — 1.9-fold lower, 21.8 nM

Molecular target: SARS-CoV-2 NTD (recombinant, limits not stated) (SARS-CoV-2)
Assay: SPR

Point of comparison: B5, Kd 7.49 nM. Against it:
- B6 — 8.5-fold higher, 63.4 nM
- B7 — 1.7-fold lower, 4.32 nM

Molecular target: SARS-CoV-2 RBD (recombinant, limits not stated) (SARS-CoV-2, UniProt P0DTC2 333-526)
Assay: SPR

Point of comparison: B9, Kd 5.24 nM. Against it:
- B8 — 8.3-fold lower, 0.628 nM
- B10 — 18-fold lower, 0.298 nM
